Results: the DeepSol protein solubility set

Assay: soluble on expression in E. coli; label from the status in PepcDB or PDB records

Sequence	soluble on expression in E. coli
MSLTLRQAIDLAAALLAEAGVDSARCDAEQLAAHLAGTDRGRLPLFEPPGDEFFGRYRDIVTARARRVPLQHLIGTVSFGPVVLHVGPGVFVPRPETEAILAWATAQSLPARPLIVDACTGSGALAVALAQHRANLGLKARIIGIDDSDCALDYARRNAAGTPVELVRADVTTPRLLPELDGQVDLMVSNPPYIPDAAVLEPEVAQHDPHHALFGGPDGMTVISAVVGLAGRWLRPGGLFAVEHDDTTSSSTVDLVSSTKLFVDVQARKDLAGRPRFVTAMRWGHLPLAGENGAIDPRQRRCRAKREGHHHHHH	soluble
MSLTLVDIHCHILPGIDDGSKDWETSIKLARDAVKDGITHAVCTPHTLNGKYLNHKDDVIRLTENFQDMLDEAKIPLTVFPGQEVRISGDLPDALDNDDILFLDEEGQYMLLEFPSDDVPTYAKDMIFSIQQRGITPIVVHPERNSRILKEPHILQELIEQGCLVQITASSYVGTFGQKIEEMSRRFIEAGQCACFASDAHDLPKRQYEYSAALKKLSNEFGSGRAQEFEDNARAIVNGDNVQLNWRPLKKKKKFWLFEGHHHHHH	not soluble
MSLTPATETVSPISQWYDMMTRMFPDQRLTFLNYGYLAQDSDFDWINDADLEQKCSVNLIRTLLGDSDLRGKKVLEIGSGRGGNCSYLARYTGAASVTGLDFCPAHIELCNRVHALPGLSFVGGDAMALPFADNEFDVVINIESSHCYPDLNTFGAEVQRVLKQDGRFFYADTMKGDNTSALSEPDSIGVDFFSNVLAQHQAMIEHARFKVEEHRDISDGVIRAFESQDGHLKHLLRSLVEEKKQQREPLPPEVWHAFDTMFHFFDDSGIKAYKNGHLAYKFWRLQKAAEGHHHHHH	not soluble
MSLTRIKLIATDVDGTFLNQQRTYNHNRFAAQLNRLSSASIRFVVASGNHLGHLKDVFAPTPQVQTFVAENGGLIVDHNRTLAEAQLPLPVVREVVQAILADQTLRPQLLRLSGAHGTYLNRQDRSLDEASQDYFFNNLVRVDDLTQVNDTIYKINGEWPNDSIQTIAAKLNAHFPGLINATASGFGSIDIVAPHMNKAVGLTQLAATWHITPAEIAAFGDNDNDREMLAHVGLGVAMRNGTDSVKEVADLITPHDNNHEGVLDVIDTILADEGHHHHHH	soluble
MSLTRKEKPAKVGGFFVLSYVLGGRLAPASPVASDSNIRLPGGYINNSQKTTIDAVRAALSAARMGTFDTAAGVQSDDDPAALLLYAWNAEVSGAFLAPLHVCEVVIRNAVSDALEALYGPRWPWSATFERSLPDPKQGYSPRRDLQSARRSAQTTGKVIPELKFVFWQKMFTGRYDTRIWDQNLRRVMPNIDPAKPVAALRNAIYGDLERVRLLRNRIAHHEPMFARALADDYQTILVLVTYRCAVTAAWLDSHQTATAIITAKPEGHHHHHH	not soluble
MSLTSVVFLNPGNSTETFWVSYSQFMQAAARDLGLDLRILYAERDPQNTLQQARELFQGRDKPDYLMLVNEQYVAPQILRLSQGSGIKLFIVNSPLTLDQRELIGQSRQNYSDWIGSMVGDDEEAGYRMLKELLHKLGPVPAGHGIELLAFSGLKVTPAAQLRERGLRRALAEHPQVHLRQLVYGEWNRERAYRQAQQLLKRYPKTQLVWSANDEMALGAMQAARELGRKPGTDLLFSGVNSSPEALQALIDGKLSVLEAGHFTLGGWALVALHDDALGLDARRLGGPDWQLSLFQEGHHHHHH	not soluble
MSLTTFIQLHLLTAYPAANLNRDDTGAPKTVVLGGATRLRVSSQSLKRAWRTSALFEQALAGHIGIRSGRIAREAATILIEKGIEEKKAIEWAAKIADYLGKAKNDKKPKDPLTNAETEQLVHISPAEFDAVKALAHQLAEEKRAPKEEDLALLRKDRMAVDIAMFGRMLANKPEFNVEAACQVAHAFGVSETIVEDDFFTAVDDLRQASEDAGAGHLGETGFGSALFYTYICIDKDLLVENLGGDEALANQTLRAFTEAALKVSPTGKQNSFASRAYASWALAEKGTEQPRSLAAAFYEPINGTRQLDVAVQRITTLRENMNTVYEQKTECASFDVMNKQGSMKDVLDFICAEGHHHHHH	soluble
MSLTTIKNIESFVYRYPLSKPVITSFGVMNNRPMLILKITDNNGMYGWGEVWCNFPLTGAEHRAKLIDNIFKPLLANFDIITPEKTYEYLVSKTKILSIQSGEPGPIAQCIAGIDIAVHDLIGKVENISLWKKFGGNKNIIPCYASGINPTKPEVTVKDAIKKGYSSFKLKIGFGIKKDLGNIKEIKNILPEKSSLMVDANQAWNLNEAIEACRLLEDLNLCWLEEPIPANSEIKEWIHLKDSTKITLAAGENFNSHREFSSFFQNKVFGYLQPDIAKWGGFTECSKLIKNIIQNKITYCPHYLGGGIGLVASAHLLSASNGKGILEVDINDNPLRSDIVGDIFEKNSGFATLSDIPGLGFEPNLKTISKYLVAHEGHHHHHH	soluble
MSLTTPSKKTLLFDLDGTLVDSFPGIRTSFLHTLHEKNWEIPSEERISQVPGPPMEWTFQDLGMTPEQAQDALQTYLEHYGQVGWDLSEAFPGMRDLLIRLKYEGFRLCTATSKGEFFAEKVLRKFEMFDLFEFMGAATDNGNRRSKSAVIKHVLDSVGLDEPNDILMIGDRSHDIEGSSEFGIDCVAVTWGYGSKTEWDAARYTVSTAEELERIIHDWAEGHHHHHH	soluble
MSLTTSHFIPFPREMVWDWHTRKGAVARLTPPFIPLNPITQAERLADGTTIFSLPAGLKWVARHDLSGFLNGSRFTDVCLTAPVKALANWRHVHNFVDQDGGTLITDSVSTRLPASTLTGMFAYRQTQLIEDLKFLSRTSTLFDGSPLTVAITGSRGLVGRALTAQLQTGGHEVIQLVRKEPKPGKRFWDPLNPASDLLDGADVLVHLAGEPIFGRFNDSHKEAIRESRVLPTKFLAELVAESTQCTTMISASAVGFYGHDRGDEILTEESESGDDFLAEVCRDWEHATAPASDAGKRVAFIRTGVALSGRGGMLPLLKTLFSTGLGGKFGDGTSWFSWIAIDDLTDIYYRAIVDAQISGPINAVAPNPVSNADMTKILATSMHRPAFIQIPSLGPKILLGSQGAEELALASQRTAPAALENLSHTFRYTDIGAAIAHELGYEQLADFAQQQEIEAERKQERAELKAAKKIAKKAPVLEESPTNLEDPEEVEQSILSSILNFRRKRNDLEHHHHHH	soluble
MSLTTSPDARWTRRRTEKQRRLEQVRTLADGVVLPTDKIVAALEALLVSGDRVVLEGNNQKQADFLSRALAKVDPGKVHDLHMIMPSVGRAEHLDLFEQGIARKLDFSFAGTQSLRISQLLEDGLLEIGAIHTYIELYSRLVVDLIPNVVLAAGFMADRAGNIYTGPSTEDTPALIEPAAFSDGIVIVQVNQLVDDVSELPRVDIPASWVDFVVVADKPFYIEPLFTRDPRHIKPVHVLMAMMAIRGIYEKHNVQSLNHGIGFNTAAIELILPTYGESLGLKGKICRNWTLNPHPTLIPAIESGWVESVHCFGTELGMENYIAARPDVFFTGRDGSLRSNRQLCQLAGQYAVDLFIGATLQVDGDGHSSTVTRGRLAGFGGAPNMGHDPRGRRHATPAWLDMRQQNESGPDAYLERGKKLVVQMVETFQEGGKPTFVETLDAVEVAKKSGMPLAPIMIYGDDVTHLLTEEGIAYLYKARSLEERQAMIAAVAGVTVIGLRHNPKDTARMRREGLIALPEDLGIRRTDASREGHHHHHH	not soluble
MSLTVNNEISKAFSKHADDYERVAKVQKEIGSRLFERLQYLKIAPRRILDLGCGPGFFSKELALLYPKAQIVGMDLSFAMLEQARKKQGWRRKWPLVSADMQKMPFATGAFDLVFANQVIHWSSSLGMVFRELNRVMNVNGCLMFTTLGPDTFKELQTAWSAANQYAHVNEFVDMHDIGDCLIAEHFMDPVIDMELLSIHYETLPQLLLALKTQGVRNINPKRNHGLTGKSAWKQFEAQYATMRTTTGKYPLTYEVVYGQAWKGAQRKMEQGEGHHHHHH	not soluble
MSLTVQDLHFKNKVNFIGGQYVPSNESDTIDILSPSTGKVIGEIPAGCKADAENALEVAQAAQKAWAKLTARTRQNMLRTFANKIRENKHILAPMLVAEQGKLLSVAEMEVDVTATFIDYGCDNALTIEGDILPSDNQDEKIYIHKVPRGVVVGITAWNFPLALAGRKIGPALITGNTMVLKPTQETPLATTELGRIAKEAGLPDGVLNVINGTGSVVGQTLCESPITKMITMTGSTVAGKQIYKTSAEYMTPVMLELGGKAPMVVMDDADLDKAAEDALWGRFANCGQVCTCVERLYVHASVYDEFMAKFLPLVKGLKVGDPMDADSQMGPKCNQREIDNIDHIVHEAIKQGATVATGGKTATVEGFEGGCWYEPTVLVDVKQDNIVVHEETFGPILPIVKVSSMEQAIEFCNDSIYGLSAYVHTQSFANINQAISDLEVGEVYINRGMGEQHQGFHNGWKQSGFGGEDGKFGLEQYLEKKTVYINEAEGHHHHHH	soluble
